For test [1], the target named is Hhp1 Cter-6P peptide (amino acids 297 to 365 of Hhp1, phosphorylated at six sites, biotin-conjugated) (S. pombe) (UniProt P40235). The test is described as follows: pull-down; competitive equilibrium binding assay: as the equilibrium binding assay on peptide beads, with 25 μM substrate (casein or Rec11) added along with the kinase; fit constrained to Bmax = 1 for the apparent Kd; Ki from Kd(app)=Kd(1+[I]/Ki).

The target is the same in test [2]. Kind of test: pull-down; equilibrium binding assay: peptide-conjugated streptavidin beads at 0 to 847 μM peptide incubated with 100 ng of MBP-Hhp1ΔC in binding buffer [50 mM tris (pH 7.0), 25 mM NaCl, 1 mM EDTA, 1 mM DTT], 1 hour at 4°C; unbound kinase in the supernatant by Western blot and densitometry; one-site specific binding fit. (In western blotting, separated proteins are transferred to a membrane and probed.)

Test [3] deals with MBP-Hhp1ΔC (Hhp1 amino acids 1 to 296) (S. pombe) (UniProt P40235). The test is described as follows: pull-down; competitive equilibrium binding assay: as the equilibrium binding assay on peptide beads, with 25 μM substrate (casein or Rec11) added along with the kinase; fit constrained to Bmax = 1 for the apparent Kd; Ki from Kd(app)=Kd(1+[I]/Ki).
The target of test [4] is Hhp1 C-terminus (Cter), 297-365 (UniProt P40235). The test is described as follows: equilibrium bead binding, supernatant depletion. The settings on record: reference: wild-type Hhp1ΔC; sites T221,T222.
Test [5] addresses CK1ε CK1εΔC, 1-294 (UniProt P49674). Kind of test: biotin-peptide streptavidin bead pull-down. The note with it: reference: unphosphorylated EC peptide; sites S389,S390,S391,S405,T407,S408.
Test [6] addresses Hhp1 Hhp1ΔC, 1-296 (UniProt P40235). The test is described as follows: biotin-peptide streptavidin bead pull-down. The settings on record: reference: unphosphorylated Cter peptide; sites S326,S327,T345,T346,S354,T356.
The target in test [7] is T1, MBP-Hhp1ΔC-VV (S. pombe, UniProt P40235 1-296).
T1 chain: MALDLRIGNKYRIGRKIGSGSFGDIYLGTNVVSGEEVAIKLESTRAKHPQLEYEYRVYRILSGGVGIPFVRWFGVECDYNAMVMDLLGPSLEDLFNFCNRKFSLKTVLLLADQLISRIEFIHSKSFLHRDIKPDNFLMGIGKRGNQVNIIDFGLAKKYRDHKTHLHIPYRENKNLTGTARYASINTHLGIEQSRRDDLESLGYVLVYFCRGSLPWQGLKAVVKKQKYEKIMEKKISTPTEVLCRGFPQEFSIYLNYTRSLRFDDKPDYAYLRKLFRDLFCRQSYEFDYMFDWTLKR

For test [8], the target named is T2, MBP-Hhp1ΔC (Hhp1 amino acids 1 to 296) (S. pombe, UniProt P40235 1-296).
T2 chain: T1 chain with V221T, V222T
The test is described as follows: ITC; second replicate.

The target of test [9] is T2, MBP-Hhp1ΔC (Hhp1 amino acids 1 to 296). The test is described as follows: apparent, in the presence of 25 uM Rec11.
The target in test [10] is MBP-Hhp1ΔC (Hhp1 amino acids 1 to 296) (S. pombe) (UniProt P40235). Kind of test: ITC; Nano-ITC, 25°C, 10 mM NaPO4 (pH 7.5), 150 mM NaCl, 0.25 mM TCEP; cell: 100 μM MBP-Hhp1ΔC or MBP-CK1εΔC; syringe: 2 mM peptide; single-site binding model; duplicate.
In test [11] the target is T3, MBP-Hhp1ΔC (Hhp1 amino acids 1 to 296) (S. pombe, UniProt P40235 1-296).
T3 construct: Hhp1, CK1 enzyme of Schizosaccharomyces pombe, C-terminally truncated, amino acids 1-296; cDNA cloned into pMAL-C2; also called Hhp1-delC; Hhp1 kinase domain; source: E. coli Rosetta2(DE3)pLysS, purified (amylose beads, eluted with maltose)
T3 sequence (looked up): T1 chain with V221T, V222T
Kind of test: pull-down; competitive equilibrium binding assay: as the equilibrium binding assay on peptide beads, with 25 μM substrate (casein or Rec11) added along with the kinase; fit constrained to Bmax = 1 for the apparent Kd; Ki from Kd(app)=Kd(1+[I]/Ki). The settings on record: both partners purified.

The target in test [12] is MBP-CK1εΔC (human CK1ε amino acids 1-294) (human) (UniProt P49674). The test is described as follows: ITC; Nano-ITC, 25°C, 10 mM NaPO4 (pH 7.5), 150 mM NaCl, 0.25 mM TCEP; cell: 100 μM MBP-Hhp1ΔC or MBP-CK1εΔC; syringe: 2 mM peptide; single-site binding model; duplicate. In general terms: In ITC the heat of successive injections is recorded.
Test [13] addresses T4, MBP-CK1εΔC-T220N (human, UniProt P49674 1-294, T220N).
T4 construct: human CK1ε, amino acids 1-294, kinase domain autophosphorylation site T220 mutated; source: E. coli Rosetta2(DE3)pLysS, purified (amylose beads, eluted with maltose)
T4 sequence (looked up): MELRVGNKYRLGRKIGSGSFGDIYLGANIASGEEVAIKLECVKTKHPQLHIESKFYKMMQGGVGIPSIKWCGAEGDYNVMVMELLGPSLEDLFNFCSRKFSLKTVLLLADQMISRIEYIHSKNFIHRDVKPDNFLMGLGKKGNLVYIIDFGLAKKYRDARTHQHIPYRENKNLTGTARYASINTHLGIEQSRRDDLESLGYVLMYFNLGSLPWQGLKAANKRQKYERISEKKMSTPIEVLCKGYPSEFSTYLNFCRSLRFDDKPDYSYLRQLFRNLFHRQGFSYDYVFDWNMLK
The test is described as follows: pull-down; biotin peptide on streptavidin sepharose (500 μM peptide) incubated with 2 μg of MBP-kinaseΔC in binding buffer [50 mM tris (pH 7.0), 25 mM NaCl, 1 mM EDTA, 1 mM DTT], 1 hour at 4°C; beads blocked in 5% BSA; bound protein detected by Western blot with anti-MBP. The note with it: both partners purified.

This is an account of results in paper PMC11086627, “Substrate displacement of CK1 C-termini regulates kinase specificity” (Science Advances, 2024).

Changes are numbered by the printed parent chain. Square brackets hold non-standard residues; d marks the D form. Ends that are not written are not given here. * marks the point of attachment. Biotin = O=C1N[C@H]2[C@H](CS[C@H]2CCCCC(=O)*)N1; pT = C[C@@H](OP(=O)(O)O)[C@H](N)C(=O)O; pS = N[C@@H](COP(=O)(O)O)C(=O)O

CK1ε CK1εΔC, 1-294, sequence (P49674 383-416, stated change not applied): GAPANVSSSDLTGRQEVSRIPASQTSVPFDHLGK
MBP-CK1εΔC (human CK1ε amino acids 1-294) (human), sequence (P49674 1-294, stated change not applied): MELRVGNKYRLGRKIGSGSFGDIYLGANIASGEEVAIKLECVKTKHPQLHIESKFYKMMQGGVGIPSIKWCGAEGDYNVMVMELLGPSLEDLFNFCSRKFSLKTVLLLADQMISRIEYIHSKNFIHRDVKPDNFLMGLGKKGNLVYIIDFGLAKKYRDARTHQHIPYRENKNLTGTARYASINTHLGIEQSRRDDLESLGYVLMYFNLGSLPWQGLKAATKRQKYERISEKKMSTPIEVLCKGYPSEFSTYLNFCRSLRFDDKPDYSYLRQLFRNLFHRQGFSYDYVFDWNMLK

In the case of “MBP-Hhp1ΔC (Hhp1 amino acids 1 to 296) (from UniProt P40235 1-296) (domain or fragment)”, the Kd(app) in the presence of 25 μM casein in test [1] was 658 µM. The Kd in test [2] worked out at 240 µM.

Consider “dephosphorylated alpha casein (natural protein)”, for which the Ki in test [3] was 14 µM.

For the molecule “Hhp1 Hhp1ΔC, 1-296 (from UniProt P40235) Hhp1ΔC-VV”, in test [4], the “binding against the reference” value is recorded as “gained”.

Consider “CK1ε extreme C-terminus (EC), 383-416 (from UniProt P49674) EC-6P peptide”, for which the “binding against the reference” value in test [5] is listed as “gained”.

Turning to “Hhp1 C-terminus (Cter), 297-365 (from UniProt P40235) Cter-6P peptide”, the “binding against the reference” value in test [6] is recorded as “gained”.

B1: Hhp1 Cter peptide (amino acids 297 to 365 of Hhp1, unphosphorylated, biotin-conjugated) (peptide)
peptide: Biotin-KTQQDQQHQQQLQQQLSATPQAINPPPERSSFRNYQKQNFDEKGGDINTTVPVINDPSATGAQYINRPN
In test [7], B1 gave a Kd of 269 µM.

B2: Hhp1 Cter-6P peptide (amino acids 297 to 365 of Hhp1, phosphorylated at six sites, biotin-conjugated) (peptide)
peptide: Biotin-KTQQDQQHQQQLQQQLSATPQAINPPPER[pS][pS]FRNYQKQNFDEKGGDIN[pT][pT]VPVINDP[pS]A[pT]GAQYINRPN
Take B2: the Kd was found to be 283 µM in [8], 425 µM in test [9] and 335 µM in test [10].

B3: GST-Rec11-N3 (N terminus of Rec11, amino acids 1-33) (domain or fragment, UniProt Q92380 1-33, looked up)
chain: MRFEFESDASSHLNEVLTELESVELENVEYEGP
notes: Rec11, physiological Hhp1 substrate involved in meiosis, N terminus, amino acids 1-33; source: expressed and purified as previously described (16)
B3: in [11], the Ki was 32 µM.

B4: CK1ε EC-6P peptide (amino acids 383 to 416 of CK1ε, phosphorylated at six sites, biotin-conjugated) (peptide, UniProt P49674 383-416, looked up)
peptide: Biotin-GAPANV[pS][pS][pS]DLTGRQEVSRIPA[pS]Q[pT][pS]VPFDHLGK
notes: human CK1ε, final 34 amino acids, 383-416; source: synthetic peptide (LifeTein LLC)
For B4, in [12], the Kd amounted to 343 µM. Further, in test [13], the binding result is on record as “binds”.
